Results on 3 molecules are retold here after PMC12132507 (bioRxiv, 2025).

First the molecules themselves.
B3: N-terminal domain of the clathrin heavy chain, TD40 (domain or fragment)
chain: MAQILPIRFQEHLQLQNLGINPANIGFSTLTMESDKFICIREKVGEQAQVVIIDMNDPSNPIRRPISADSAIMNPASKVIALKAGKTLQIFNIEMKSKMKAHTMTDDVTFWKWISLNTVALVTDNAVYHWSMEGESQPVKMFDRHSSLAGCQIINYRTDAKQKWLLLTGISAQQNRVVGAMQLYSVDRKVSQPIEGHAASFAQFKMEGNAEESTLFCFAVRGQAGGKLHIIEVGTPPTGNQPFPKKAVDVFFPPEAQNDFPVAMQISEKHDVVFLITKYGYIHLYDLETGTCIYMNRISGETIFVTAPHEATAGIIGVNRKGQVLSVCVEEENIIPYITNVLQNPDLALRMAVRNNLAGAEEL

Experiment [1] concerns the target B3. In words: NMR titration.
Experiment [2] has as its target T1, Eps15IDR (C-terminal intrinsically disordered region of human Eps15, residues 481 to 897) (human, UniProt P42566 481-896).
T1 sequence: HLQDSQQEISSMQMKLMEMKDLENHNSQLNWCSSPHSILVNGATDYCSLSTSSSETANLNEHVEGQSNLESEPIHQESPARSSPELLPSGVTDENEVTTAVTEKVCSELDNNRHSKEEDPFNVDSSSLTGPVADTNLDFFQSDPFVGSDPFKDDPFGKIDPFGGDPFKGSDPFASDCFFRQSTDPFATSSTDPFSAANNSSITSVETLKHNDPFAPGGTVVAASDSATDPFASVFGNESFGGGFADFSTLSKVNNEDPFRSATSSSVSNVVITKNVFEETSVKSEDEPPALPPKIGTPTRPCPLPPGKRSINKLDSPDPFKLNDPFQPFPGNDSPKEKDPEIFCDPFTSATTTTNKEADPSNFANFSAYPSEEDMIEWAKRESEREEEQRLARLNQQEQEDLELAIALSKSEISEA
The experiment in a line: NMR titration.

B1: Eps15(648-780) (domain or fragment)
chain: KGSDPFASDCFFRQSTDPFATSSTDPFSAANNSSITSVETLKHNDPFAPGGTVVAASDSATDPFASVFGNESFGGGFADFSTLSKVNNEDPFRSATSSSVSNVVITKNVFEETSVKSEDEPPALPPKIGTPTR
For B1, the binding result in experiment [1] is on record as “binds”.

B2: Eps15(569-671) (domain or fragment)
chain: SGVTDENEVTTAVTEKVCSELDNNRHSKEEDPFNVDSSSLTGPVADTNLDFFQSDPFVGSDPFKDDPFGKIDPFGGDPFKGSDPFASDCFFRQSTDPFATSST
Regarding B2, in experiment [1], the binding result is “binds”.

For B3, the binding result in experiment [2] is “binds”.
